Assay results taken from patent publication US20250388664A1 (BIOARCTIC, published 2025).

Legend:
[1] = molecular target: T1, hTfR1 (recombinant, construct not specified) (human, UniProt P02786 89-760, limits assumed); assay: SPR (Biacore 8K), single-cycle kinetics, hTfR1 captured through its N-terminal DYKDDDDK tag, scFv injected in 5 steps (3-fold, from 700 or 400 nM)
T1 construct: also called biotinylated hTfR1
Method: Binding to hTfR1 of six different purified scFv variants from Example 24 was evaluated by surface plasmon resonance (SPR) using Biacore 8K (Cytiva). 30 μg/ml of […] Tag mAb FG4R (Thermo Fisher Scientific, MA1-91878) in 10 mM acetate buffer, pH 4.5 was immobilized on a CM5 sensor chip (Cytiva, #BR100399) using the amine coupling kit type 2 (Cytiva, #BR100633) according to the manufacturer's instruction, resulting in immobilization levels of approximately 10000 RU. hTfR1 was captured via an N-terminal […] tag. To this end, the receptor was injected over the chip with a contact time of 60 s at a flow rate of 10 μl/min. […] Interaction was measured using the single cycle kinetics method with a contact time of 120 s at a flow rate of 30 μl/min followed by a dissociation time of 600 s. Regeneration of the surface between cycles was done by injecting 10 mM glycine-HCl pH 1.7 with a contact time of 30 s and a flow rate of 30 μl/min. The binding modules were diluted in HBS-EP+ (Cytiva, #BR100669). Experiments were performed at 25° C.

[2] = molecular target: T2, AβpE3-42 protofibrils (UniProt P05067 674-713, pyroglutamate at position 3 (N-terminal residue)); assay: SPR, protofibrils immobilised, antibody injected, 1:1 fit, apparent; binding to AβpE3-42 protofibrils; KD in pM
T2 construct: range 3-42 (Aβ numbering); Soluble aggregates made from AβpE3-42 peptide, purified in the void peak of SEC; also called AβpE3-42 PF
T2 sequence (P05067 674-713): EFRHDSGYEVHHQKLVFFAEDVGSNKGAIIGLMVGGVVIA
Method: (§1) Single cycle kinetics was also used to measure binding of the antibodies to AβpE3-42 protofibrils. […] Regeneration of the surface between cycles was done by injecting 30 μl 10 mM glycine-HCl pH 1.7. The binding data was fitted to a 1:1 interaction model.
(§2) In all SPR experiments, 1×HBS-EP+ (Cytiva, cat. no. BR100669) was used to dilute antibodies and target antigens. Experiments were performed at 25° C.
(§3) Affinity evaluation and KD determination by surface plasmon resonance: Binding interactions between antigens and antibodies were evaluated by SPR using a Biacore 8K instrument (Cytiva) according to standard procedures.

[3] = molecular target: T3, AβpE3-40 monomer (UniProt P05067 674-711, pyroglutamate at position 3 (N-terminal residue)); assay: inhibition ELISA, antigen titrated in solution, AβpE3-40 coat
T3 construct: range 3-40 (Aβ numbering); Synthetic peptide (Bachem/Anaspec), verified monomeric by SEC; also called monomeric AβpE3-40
T3 sequence (P05067 674-711): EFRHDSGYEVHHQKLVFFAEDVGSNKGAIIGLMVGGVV

[4] = molecular target: T4, Aβ1-40 monomer (UniProt P05067 672-711); assay: as above
T4 construct: range 1-40 (Aβ numbering)
T4 sequence (P05067 672-711): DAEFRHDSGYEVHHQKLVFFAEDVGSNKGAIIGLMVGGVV

[5] = molecular target: T2, AβpE3-42 protofibrils; assay: as above
[6] = molecular target: T5, Aβ1-42 protofibrils (UniProt P05067 672-713); assay: as above
T5 construct: range 1-42 (Aβ numbering); Soluble aggregates made from Aβ1-42 monomer
T5 sequence (P05067 672-713): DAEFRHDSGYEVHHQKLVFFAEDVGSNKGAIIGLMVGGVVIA

[7] = molecular target: T3, AβpE3-40 monomer; assay: SPR, antibody immobilised, monomer injected, 1:1 fit
Method: Single cycle kinetics with the antibodies immobilized on a CM5 chip was used to measure the binding of the antibodies to the AβpE3-40 monomer. For the measurements, 5 μg/ml of analyte antibody was immobilized on the chip. […] Regeneration of the surface between cycles was done by injecting 30 μl 3 M MgCl₂. The binding data was fitted to a 1:1 interaction model.
as §2, §3

[8] = molecular target: T2, AβpE3-42 protofibrils; assay: SPR, protofibrils immobilised, antibody injected, 1:1 fit, apparent
Method: as §1, §2, §3

[9] = molecular target: T6, h/m apical domain chimera (SEQ ID NO:112) (human/mouse chimera); assay: indirect ELISA: plate coated with 1 µg/ml h/m apical domain chimera, mouse IgG titrated, anti-mouse IgG-HRP; x axis printed as 'TfR (ng/ml)'
T6 construct: also called chimeric TfR1 consisting of human apical domain grafted on mouse TfR1 ectodomain
T6 chain: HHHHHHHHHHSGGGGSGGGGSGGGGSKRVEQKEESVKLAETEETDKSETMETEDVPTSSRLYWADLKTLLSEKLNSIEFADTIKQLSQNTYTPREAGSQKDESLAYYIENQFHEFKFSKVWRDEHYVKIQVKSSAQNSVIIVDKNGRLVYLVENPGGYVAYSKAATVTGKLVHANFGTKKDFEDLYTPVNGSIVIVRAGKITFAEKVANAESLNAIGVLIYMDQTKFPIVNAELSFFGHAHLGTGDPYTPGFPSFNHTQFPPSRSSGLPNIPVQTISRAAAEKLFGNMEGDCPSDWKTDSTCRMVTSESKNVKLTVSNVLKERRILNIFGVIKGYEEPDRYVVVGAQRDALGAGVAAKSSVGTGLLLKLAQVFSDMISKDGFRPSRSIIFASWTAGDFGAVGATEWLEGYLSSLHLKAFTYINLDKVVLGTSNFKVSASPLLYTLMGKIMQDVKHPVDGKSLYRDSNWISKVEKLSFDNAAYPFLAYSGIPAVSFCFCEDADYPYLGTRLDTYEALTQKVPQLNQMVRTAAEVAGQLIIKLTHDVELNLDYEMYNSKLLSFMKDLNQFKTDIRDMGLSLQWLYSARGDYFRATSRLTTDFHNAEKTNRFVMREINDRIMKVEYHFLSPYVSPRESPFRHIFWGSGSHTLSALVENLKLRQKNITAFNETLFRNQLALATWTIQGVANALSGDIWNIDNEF
Method: Plasma samples serially diluted from a starting dilution of 1/450 or hybridoma supernatants diluted 1/2 were added to the plates (50 μl/well; dilution buffer: PBS with 0.1% BSA and 0.05% TWEEN®-20) and incubated for 2 h at room temperature and then the plates were washed four times. […] After another wash (as above), 50 μl/well TMB substrate (K-Blue® Aqueous, Neogen) was added, and the reaction was stopped after 10-15 min with 50 μl/well of 0.5 M H₂SO₄. The optical density at 450 nm was read using a plate reader (Tecan). The endpoint titers were defined as the dilution above the average of the blank wells (background) plus 3 standard deviations of the blank wells.
In the ELISA experiment, human, mouse or three different chimeric TfR1 receptors were used to coat ELISA plates (FIGS. 30A-30E). The ELISA protocol was slightly modified as follows from the indirect ELISA described in Example 15. […] The coated plates were then blocked. Dilution series of mouse IgG of the analyzed antibodies were prepared in PBS and incubated on the ELISA plates. Unbound antibodies were then washed off before incubating wells with a HRP-conjugated secondary, anti-mouse-IgG for 1 h. Plates were then washed again before addition of HRP substrate TMB for development and detection of antibody binding to the wells. TMB development was stopped by adding 0.5 M H₂SO₄ to the wells and ELISA responses measured as the OD at 450 nm in an ELISA plate reader.

T1 sequence (P02786 89-760 limits assumed): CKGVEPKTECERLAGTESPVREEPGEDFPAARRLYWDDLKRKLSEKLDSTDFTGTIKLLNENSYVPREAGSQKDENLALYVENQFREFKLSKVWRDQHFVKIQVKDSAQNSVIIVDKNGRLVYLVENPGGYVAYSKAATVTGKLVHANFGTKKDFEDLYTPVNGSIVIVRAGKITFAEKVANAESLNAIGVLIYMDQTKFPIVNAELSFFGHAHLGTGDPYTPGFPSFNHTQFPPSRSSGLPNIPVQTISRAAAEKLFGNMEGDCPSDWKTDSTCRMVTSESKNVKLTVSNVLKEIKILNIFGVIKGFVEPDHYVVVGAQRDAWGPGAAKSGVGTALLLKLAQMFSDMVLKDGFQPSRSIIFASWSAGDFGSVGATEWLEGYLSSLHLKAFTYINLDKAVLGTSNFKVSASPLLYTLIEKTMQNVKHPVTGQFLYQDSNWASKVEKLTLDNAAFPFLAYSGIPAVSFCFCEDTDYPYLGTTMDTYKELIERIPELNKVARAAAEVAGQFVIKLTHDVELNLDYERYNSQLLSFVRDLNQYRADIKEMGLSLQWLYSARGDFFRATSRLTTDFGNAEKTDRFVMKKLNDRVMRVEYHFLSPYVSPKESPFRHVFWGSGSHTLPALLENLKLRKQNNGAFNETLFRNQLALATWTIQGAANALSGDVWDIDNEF

Binder	binding result [1]	Kd [2]	IC50 [3]	IC50 [4]	IC50 [5]	IC50 [6]	Kd [7]	koff [7]	kon [7]	koff [8]	kon [8]	also measured
h26D3-HC6, VL-first (scFv) scFv: DIQMTQSPSSVSASVGDRVTITCKSSQSLLYSTNQKNYLAWYQQKPGKAPKLLIYWASTRESGVPSRFSGSGSGTDFTLTISSLQPEDFATYYCQQYFIYPRTFGQGTKVEIKGGGGSGGGGSGGGGSEVQLVQSGAEVKKPGSSVKVSCKASGYIFTDYNMDWVRQAPGQGLEWIGDINPDADTTSYNEKFKGRATLTVDKSTSTAYMELSSLRSEDTAVYYCARGGYSGSSYYHPMDYWGQGTLVTVSS	binds											
H2L7-K12V/R71A/R83T (antibody, human IgG1, kappa, VH variant of H2L7; VL and constant domains identical to H2L7) heavy: not shown light: EIVLTQSPLSLSVTLGQSASISCRSSQSLLDSNGKTYLHWFILRPGQSPRRLIYLVSILDSGVPDRFSGSGSGTDFTLKISRVEAEDVGVYYCVQGTHFPFTFGSGTKLEIKRTVAAPSVFIFPPSDEQLKSGTASVVCLLNNFYPREAKVQWKVDNALQSGNSQESVTEQDSKDSTYSLSSTLTLSKADYEKHKVYACEVTHQGLSSPVTKSFNRGEC		0.427 nM	2.29 nM	> 500 nM	4.9 nM	> 132 nM	4.04 nM	0.000234 s⁻¹	58700 M⁻¹ s⁻¹	2.45e-05 s⁻¹	57600 M⁻¹ s⁻¹	
H2L7-R71A (antibody, human IgG1, kappa, VH variant of H2L7; VL and constant domains identical to H2L7) heavy: not shown light: EIVLTQSPLSLSVTLGQSASISCRSSQSLLDSNGKTYLHWFILRPGQSPRRLIYLVSILDSGVPDRFSGSGSGTDFTLKISRVEAEDVGVYYCVQGTHFPFTFGSGTKLEIKRTVAAPSVFIFPPSDEQLKSGTASVVCLLNNFYPREAKVQWKVDNALQSGNSQESVTEQDSKDSTYSLSSTLTLSKADYEKHKVYACEVTHQGLSSPVTKSFNRGEC		0.376 nM	2.54 nM	> 500 nM	4.59 nM	> 132 nM	4.62 nM	0.000225 s⁻¹	50100 M⁻¹ s⁻¹	2.54e-05 s⁻¹	67700 M⁻¹ s⁻¹	
H2L7-R71A/R83T (antibody, human IgG1, kappa, VH variant of H2L7; VL and constant domains identical to H2L7) heavy: not shown light: EIVLTQSPLSLSVTLGQSASISCRSSQSLLDSNGKTYLHWFILRPGQSPRRLIYLVSILDSGVPDRFSGSGSGTDFTLKISRVEAEDVGVYYCVQGTHFPFTFGSGTKLEIKRTVAAPSVFIFPPSDEQLKSGTASVVCLLNNFYPREAKVQWKVDNALQSGNSQESVTEQDSKDSTYSLSSTLTLSKADYEKHKVYACEVTHQGLSSPVTKSFNRGEC		0.471 nM	2.77 nM	> 500 nM	5.44 nM	> 132 nM	4.72 nM	0.000235 s⁻¹	50900 M⁻¹ s⁻¹	2.73e-05 s⁻¹	57400 M⁻¹ s⁻¹	
h26D3-LC1_DS, VL-first (scFv) scFv: DIQMTQSPSSVSASVGDRVTITCKSSQSLLASTNQKNYLAWYQQKPGKAPKLLIYWASTRESGVPSRFSGSGSGTDFTLTISSLQPEDFATYYCQQYFIYPRTFGCGTKVEIKGGGGSGGGGSGGGGSGGGGSEVQLVQSGAEVKKPGSSVKVSCKASGYIFTDYNMDWVRQAPGQCLEWIGDINPDYDTTSYNEKFKGRATLTVDKSTSTAYMELSSLRSEDTAVYYCARGGYSGSSYYHPMDYWGQGTLVTVSS	binds											
h26D3-HC6 (scFv, also called scFv h26D3-HC6) scFv: EVQLVQSGAEVKKPGSSVKVSCKASGYIFTDYNMDWVRQAPGQGLEWIGDINPDADTTSYNEKFKGRATLTVDKSTSTAYMELSSLRSEDTAVYYCARGGYSGSSYYHPMDYWGQGTLVTVSSGGGGSGGGGSGGGGSDIQMTQSPSSVSASVGDRVTITCKSSQSLLYSTNQKNYLAWYQQKPGKAPKLLIYWASTRESGVPSRFSGSGSGTDFTLTISSLQPEDFATYYCQQYFIYPRTFGQGTKVEIK	binds											
h26D3-HC6_DS (scFv) scFv: EVQLVQSGAEVKKPGSSVKVSCKASGYIFTDYNMDWVRQAPGQCLEWIGDINPDADTTSYNEKFKGRATLTVDKSTSTAYMELSSLRSEDTAVYYCARGGYSGSSYYHPMDYWGQGTLVTVSSGGGGSGGGGSGGGGSDIQMTQSPSSVSASVGDRVTITCKSSQSLLYSTNQKNYLAWYQQKPGKAPKLLIYWASTRESGVPSRFSGSGSGTDFTLTISSLQPEDFATYYCQQYFIYPRTFGCGTKVEIK	binds											
h26D3-LC1 (scFv) scFv: EVQLVQSGAEVKKPGSSVKVSCKASGYIFTDYNMDWVRQAPGQGLEWIGDINPDYDTTSYNEKFKGRATLTVDKSTSTAYMELSSLRSEDTAVYYCARGGYSGSSYYHPMDYWGQGTLVTVSSGGGGSGGGGSGGGGSDIQMTQSPSSVSASVGDRVTITCKSSQSLLASTNQKNYLAWYQQKPGKAPKLLIYWASTRESGVPSRFSGSGSGTDFTLTISSLQPEDFATYYCQQYFIYPRTFGQGTKVEIK	binds											
26D3 (antibody, V domains shown, also called mouse antibody 26D3; clone 26D3) VH: EVQLQQFGVELVKPGASVKISCKASGYIFTDYNMDWVKQSHGKSLEWIGDINPDYDTTSYNEKFKGKATLTVDKSSSTAYMELRSLTSEDTAVYYCARGGYSGSSYYHPMDYWGQGTSVTVSS VL: DIVMSQSPSSLAVSVGEKITMSCKSSQSLLYSTNQKNYLAWYQQKPGQSPELLIYWASTRESGVPDRFTGSGSGTDFTLTISNVRAEDLAVYYCQQYFIYPRTFGGGTKLEIK												binding result [9]: no binding (tested: about 600 ng/ml)
